The supplement of paper PMC9170038

Test system: MS2 coat protein
Assay: apparent KD of MS2 coat protein; designed switch direction (-1 OFF switch, 1 ON switch): 1; higher = weaker reporter binding
Summary of the method: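 Designed RNA switches with common flanks were transcribed on Illumina chips by stalled E. coli RNA polymerase and titrated with SNAP-549-labelled MS2 coat protein, from 0.7 or 1.5 nM doubling to 3 µM, in Tris-HCl pH 7.5 buffer with KCl, MgCl2, BSA, DTT, tRNA and Tween-20. Steps lasted 0.8–1.5 h (lowest) to 10–20 min (highest). Titrations ran without input, with 200 uM small-molecule ligand, or with an oligonucleotide input. Normalised cluster fluorescence was curve-fitted, and apparent KD is the per-design median over clusters.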

[1] = input ligand: microRNA oligo, concentration not stated
[2] = Eterna round: R95, input ligand: FMN 200 uM
[3] = Eterna round: R95, input ligand: microRNA oligo, concentration not stated
[4] = Eterna round: R95, input ligand: none

Sequence | apparent KD of MS2 coat protein (input ligand: FMN 200 uM) [nM] | apparent KD of MS2 coat protein [1] [nM] | apparent KD of MS2 coat protein (input ligand: none) [nM] | apparent KD of MS2 coat protein [2] [nM] | apparent KD of MS2 coat protein [3] [nM] | apparent KD of MS2 coat protein [4] [nM]
UAAUUAAAGCAAGGAUAUCACGUCGAUUAGACGUGAGAAGGUGCUCCUUACAUGAGGAUCACCCAUGUAUAACAUGAAUAAUUA [SSNG1/10-B2] (Eterna round: R96, puzzle: Same State NG 1) | 169 | 522 | 792 | – | – | –
GGCAGUCCGACACAGGAUAUGGGUAACGAAACAUGAGGAUCACCCAUGUGGAAACAUCGGGUUGCCUAGAAGGGUGGAAAGAUUG [Xeti] (Eterna round: R96, puzzle: Same State 2) | 32.4 | 71.6 | 124 | – | – | –
CCGCUCCGUGGAGGAUAUGGGCCUGCCCGGGAUACCGGGCCUAACACAUGAGGAUCACCCAUGUCCCAGAAGGCCGCUGGAGCC [Rasoleis] (Eterna round: R96, puzzle: Same State NG 2) | 18.9 | 85.1 | 58.2 | – | – | –
UCGGGCGUACUUGCUGACAUGAGGAUCACCCAUGUAAAUGGGAAGGAUAUGGUUCCGUUUCGGUUCCAGAAGGUCCUGGGUGCU [salish99_SSNG3_r04_311] (Eterna round: R96, puzzle: Same State NG 3) | 886 | 1140 | 1180 | – | – | –
GGUAGGUUACUACCAAACAUGAGGAUCACCCAUGUUAAUGGGAAGGAUAUGGUACCUAUUUGGUACCAGAAGGUCCAAAUAAUU [Mat - Same State NG 3 - JL Mod - D97] (Eterna round: R96, puzzle: Same State NG 3) | 73.2 | 261 | 596 | – | – | –
UUGAAUAAUUAAGGAUAUCGAGUCAAGAUGUUAAACAUGAGGAUCACCCAUGUGGGUUGCGGUAUCGAGAAGGUAAAUAAGAAG [Mat - Same State NG 2 - JL mod - D55] (Eterna round: R96, puzzle: Same State NG 2) | 26.6 | 19.6 | 42.5 | – | – | –
AAGUGGAACUGAGGAUAUGGCAUCCGAACAUGAGGAUCACCCAUGUAGUUAGGAAAAGAACGGAGCCAGAAGGUAGGACUCCGC [Soqube] (Eterna round: R96, puzzle: Same State NG 2) | 10.6 | 9.65 | 15 | – | – | –
AUAAUUUAUGCAGGAUAUGAUUAACAUGAGGAUCACCCAUGUGGUGUUGUGAGUAAGGAGAGUGAUCAGAAGGGCAUUUUUUUU [JMF's solution 70] (Eterna round: R96, puzzle: Same State NG 2) | 734 | 391 | 400 | – | – | –
AAAAGAAACACAGGAUAUACCGCGCUUAACGCGGUAGAAGGGUGGGACAUGAGGAUCACCCAUGUGGCCUGAGCGCCAGGCCGC [Uszadi] (Eterna round: R96, puzzle: Same State NG 1) | 428 | 14.1 | 299 | – | – | –
GGUAUUAACACAGGAUAUGCUUACGAAACGUAAGCAGAAGGGUGGACAUGAGGAUCACCCAUGUUUGUACCAGGGCGUGAGCCC [JL SSNG1 1.71] (Eterna round: R96, puzzle: Same State NG 1) | 68.5 | 271 | 652 | – | – | –
GGUGGGUUACUACCCACACAUGAGGAUCACCCAUGUAUUGGGAAGGAUAUGGUGCCUGUGUGGUACCAGAAGGUCCUGGAGGUG [SS-NG3-LRO20] (Eterna round: R96, puzzle: Same State NG 3) | 1350 | 237 | 1590 | – | – | –
AUUAUUUCAUGAGGAUAUGGCACCUUAUUGGUGCCAGAAGGCAUGUCUAUUGACAUGAGGAUCACCCAUGUAUUAUAUUAUAUA [Eli NG1ss - 88] (Eterna round: R96, puzzle: Same State NG 1) | 57.4 | 658 | 493 | – | – | –
ACAUGAGACCUAGGAUAUUUUGUACCUACAUGUGACAUGAGGAUCACCCAUGUGGUAAGUAUGAGAAAGAAGGAGGAGAUAUGU [Equivalence 21 - Jieux - Same State NG 2] (Eterna round: R96, puzzle: Same State NG 2) | 18.1 | 30.1 | 36.7 | – | – | –
AAUAUACAUGAGGAUCACCCAUGUUAGUAAAUGACAGGAUAUGCAAUAAAUAAAUAAUAAGCAGAAGGGUCUAAUA [JMF's solution 1] (puzzle: Same State 1) | – | – | – | 13.7 | 14.2 | 16
AUAUACUGGGUAGGAUAUCUAGGAUAUGGGAAAGACUAAGUCUGUAGGUCACCUAACCCAGAUGGAGAGAAGGACCCAACACAC [pwkr ssNG2 2FMN + F9.42] (Eterna round: R96, puzzle: Same State NG 2) | 16.1 | 5.2 | 42.6 | – | – | –
ACAAGCUUUUUAGGAGAGAAAGGAGGGAAACAUGAGGAUCACCCAUGUAUGGUAGUGAAUAGAGGAACUCGUCUUAU [JR_SHM208A_Sub080] (puzzle: Sensor for hsa-mir-208a) | – | – | – | 90.5 | 25.6 | 152
GUCCAAAACACAGGAUAUCCCAGUCAUGAUCUGGGAGAAGGGUGGCCACAUGAGGAUCACCCAUGUGAAGUGCGAGAGGCACGA [Inerraat] (Eterna round: R96, puzzle: Same State NG 1) | 258 | 827 | 629 | – | – | –
GGAAACAAGAGAGGAUAUGCAGAGGAUCACCCUGUAGAAGGCUCCCUAGAGAGGAUAUGCAGAGGAUCACCCUGCAGAAGGCUC [pwkr ssNG DX.18] (Eterna round: R96, puzzle: Same State NG 1) | 227 | 27.7 | 89.1 | – | – | –
UUUAGUUGCGGGCAGGAUAUGUAUUAAAAUACAUGAGGAUCACCCAUGUGAGAUCGAAAAGAUCUACAGAAGGGCCAAUCGCGAC [Laonerce - 24] (puzzle: Same State 2) | – | – | – | 14 | 58.3 | 85.8
AGUAGGGCGUCAUAGGAUAUCCGGAAGAGUACAUGAGGAUCACCCAUGUCACUCCGCCAUGCAGAGGAGAAGGGUGGUGUUGUAC [Biedzage] (puzzle: Same State 2) | – | – | – | 77.6 | 36.6 | 41
GAGUGGAGGAGAGGAUAUACAAUGAUAAUCACAGUAGAAGGUUCUAACAUGAGGAUCACCCAUGUAGGACUAUUCCUGAGAGAA [Parity 49 - Jieux - Same State NG 1] (Eterna round: R96, puzzle: Same State NG 1) | 10.2 | 9.32 | 15.7 | – | – | –
ACUCUCACAGUAGGAUAUGUAGGAUAUGCCUACAUGAGGAUCACCCAUGUAAACAUGGCAGAAGGAUAGAAGGACUUACAUUGG [pwkr ssNG2 2FMN + 1F5.1] (Eterna round: R96, puzzle: Same State NG 2) | 495 | 577 | 762 | – | – | –
